Experimental data reported in patent US20070077597A1 (published 2007).

Assays:
[1] = target: LacI fusion clone 14 (Gt library) (E. coli, UniProt P03023 1-360); assay: panning, LacI Gt library on immobilized ROS membranes
Procedure: (§1) For screening of the library by “panning,” rhodopsin receptors prepared according to Example 5 were immobilized directly on Immulon 4 (Dynatech) microtiter wells (0.1-1 μg of protein per well) in cold 35 mM HEPES, pH 7.5, containing 0.1 mM EDTA, 50 mM KCl and 1 mM dithiothreitol (HEK/DTT). After shaking for one hour at 4° C., unbound membrane fragments were washed away with HEK/DTT. The wells were blocked with 100 μl 2% BSA in HEKL (35 mM HEPES; 0.1 mM EDTA; 50 mM KCl; 0.2 M α-lactose; pH 7.5, with 1 mM DTT). For rounds 1 and 2, BSA was used for blocking; in later rounds 1% nonfat dry milk was used. For the first round of panning, about 24 wells of a 96-well plate were used. In subsequent rounds, 8 wells with receptor and 8 wells without receptor were prepared.
(§2) The Gt library was thawed (2 mL aliquot) and mixed with 6 mL lysis buffer on ice. Lysis buffer contains 4.25 mL HE (25 mM HEPES: 0.1 mM EDTA; pH 7.5); 1 mL 50% glycerol; 750 μL 10 mg/mL protease-free BSA in HE; 10 μL 0.5 M DTT; and 6.25 μL 0.2 M PMSF. Freshly prepared lysozyme solution (150 μL 10 mg/mL lysozyme in cold HE) was added and the tube was gently inverted several times and incubated on ice for no more than two minutes. The extent of lysis is evidenced by an increase in viscosity that can be observed by noting the slow migration of bubbles to the top of the tube after mixing. Lysis was terminated by mixing in 2 mL 20% lactose and 250 μL 2M KCl. The tube was centrifuged immediately at 13,000×g for 15 minutes at 4° C. and the supernatant transferred to a new tube. A small aliquot of 0.1% (the PRE sample) was saved in a separate, labeled tube. […] Immediately thereafter, the crude bacterial lysate from the peptide library (200 μL) was added to each well and allowed to shake gently for one hour at 4° C. For round 2, this same procedure was followed. In round 3, the amount of lysate used was reduced to 100 μL. In subsequent rounds, the lysate was diluted 1:10 in HEKL/BSA.

[2] = target: LacI fusion clone 26 (Gt library, light-activated rhodopsin screen) (E. coli, UniProt P03023 1-360); assay: as above
Procedure: as §1, §2

[3] = target: LacI fusion clone 11 (Gt library) (E. coli, UniProt P03023 1-360); assay: as above
Procedure: as §1, §2

[4] = target: LacI fusion clone 15/28 (Gt library) (E. coli, UniProt P03023 1-360); assay: as above
Procedure: as §1, §2

[5] = target: LacI fusion clone 24 (Gt library) (E. coli, UniProt P03023 1-360); assay: as above
Procedure: as §1, §2

[6] = target: LacI fusion clone 23 (Gt library) (E. coli, UniProt P03023 1-360); assay: as above
Procedure: as §1, §2

[7] = target: LacI fusion clone 4 (Gt library) (E. coli, UniProt P03023 1-360); assay: as above
Procedure: as §1, §2

[8] = target: LacI fusion clone 27 (Gt library) (E. coli, UniProt P03023 1-360); assay: as above
Procedure: as §1, §2

[9] = target: LacI fusion clone 3 (Gt library, light-activated rhodopsin screen) (E. coli, UniProt P03023 1-360); assay: as above
Procedure: as §1, §2

[10] = target: T1, LacI fusion clone 13 (Gt library), … (E. coli, UniProt P03023 1-360); assay: as above
T1 construct: also called L20
Procedure: as §1, §2

[11] = target: LacI fusion clone 18 (Gt library) (E. coli, UniProt P03023 1-360); assay: as above
Procedure: as §1, §2

[12] = target: LacI fusion clone 6 (Gt library) (E. coli, UniProt P03023 1-360); assay: as above
Procedure: as §1, §2

[13] = target: LacI fusion clone 17 (Gt library, light-activated rhodopsin screen) (E. coli, UniProt P03023 1-360); assay: as above
Procedure: as §1, §2

[14] = target: LacI fusion clone 16 (Gt library) (E. coli, UniProt P03023 1-360); assay: as above
Procedure: as §1, §2

[15] = target: LacI fusion clone 19 (Gt library) (E. coli, UniProt P03023 1-360); assay: as above
Procedure: as §1, §2

[16] = target: T2, LacI fusion clone 8 (Gt library) (E. coli, UniProt P03023 1-360); assay: as above
T2 construct: also called Peptide 8; HAP
Procedure: as §1, §2

[17] = target: LacI fusion clone 7 (Gt library, dark-adapted rhodopsin screen) (E. coli, UniProt P03023 1-360); assay: panning, LacI Gt library on immobilized ROS membranes kept in the dark
[18] = target: LacI fusion clone 26 (Gt library, dark-adapted rhodopsin screen) (E. coli, UniProt P03023 1-360); assay: as above
[19] = target: LacI fusion clone 2 (Gt library, dark-adapted rhodopsin screen) (E. coli, UniProt P03023 1-360); assay: as above
[20] = target: LacI fusion clone 17 (Gt library, dark-adapted rhodopsin screen) (E. coli, UniProt P03023 1-360); assay: as above
[21] = target: LacI fusion clone 3 (Gt library, dark-adapted rhodopsin screen) (E. coli, UniProt P03023 1-360); assay: as above
[22] = target: LacI fusion clone 33/37 (Gt library, dark-adapted rhodopsin screen) (E. coli, UniProt P03023 1-360); assay: as above
[23] = target: LacI fusion clone 41 (Gt library, dark-adapted rhodopsin screen) (E. coli, UniProt P03023 1-360); assay: as above
[24] = target: LacI fusion clone 21 (Gt library, dark-adapted rhodopsin screen) (E. coli, UniProt P03023 1-360); assay: as above

Measured: binding result

B1: light-activated bovine rhodopsin (metarhodopsin II) in rod outer segment membranes (receptor, UniProt P02699 1-348, looked up)
chain: MNGTEGPNFYVPFSNKTGVVRSPFEAPQYYLAEPWQFSMLAAYMFLLIMLGFPINFLTLYVTVQHKKLRTPLNYILLNLAVADLFMVFGGFTTTLYTSLHGYFVFGPTGCNLEGFFATLGGEIALWSLVVLAIERYVVVCKPMSNFRFGENHAIMGVAFTWVMALACAAPPLVGWSRYIPEGMQCSCGIDYYTPHEETNNESFVIYMFVVHFIIPLIVIFFCYGQLVFTVKEAAAQQQESATTQKAEKEVTRMVIIMVIAFLICWLPYAGVAFYIFTHQGSDFGPIFMTIPAFFAKTSAVYNPVIYIMMNKQFRNCMVTTLCCGKNPLGDDEASTTVSKTETSQVAPA
modifications: retinylidene chromophore on Lys-296 (all-trans after light)
notes: whole, on cells; also called MII
not listed: [17] | [18] | [19] | [20] | [21] | [22] | [23] | [24]
binds: all other assays above

B2: dark-adapted bovine rhodopsin in rod outer segment membranes (receptor, UniProt P02699 1-348, looked up)
chain: MNGTEGPNFYVPFSNKTGVVRSPFEAPQYYLAEPWQFSMLAAYMFLLIMLGFPINFLTLYVTVQHKKLRTPLNYILLNLAVADLFMVFGGFTTTLYTSLHGYFVFGPTGCNLEGFFATLGGEIALWSLVVLAIERYVVVCKPMSNFRFGENHAIMGVAFTWVMALACAAPPLVGWSRYIPEGMQCSCGIDYYTPHEETNNESFVIYMFVVHFIIPLIVIFFCYGQLVFTVKEAAAQQQESATTQKAEKEVTRMVIIMVIAFLICWLPYAGVAFYIFTHQGSDFGPIFMTIPAFFAKTSAVYNPVIYIMMNKQFRNCMVTTLCCGKNPLGDDEASTTVSKTETSQVAPA
modifications: 11-cis retinylidene chromophore on Lys-296
notes: whole, on cells; same protein as m1, left in the dark
binds: [17] | [18] | [19] | [20] | [21] | [22] | [23] | [24]
